Values joined by “and” are separate entries in the source; they are usually repeats but may differ in a detail not shown here. Identical values can stand only once. Where no end group is shown, it is not given here.
How the values were obtained:
[1] = Composition and gel chromatography of the isolated phospholipid-protein complexes; type: physicochemical; settings: for Composition DPPC/Protein w/w: isolated complex with DPPC, maximum of elution peak
Method: Complexes were obtained by incubation of the peptides with dimyristoylphosphatidylcholine (DMPC, Sigma, St Louis, Mo.) vesicles at a DMPC/peptide, w/w ratio of 3/1 at 25° C. for 16 h. Complexes with dipalmitoylphosphatidylcholine (DPPC) were generated by the cholate dialysis procedure (Vanloo et al., 1991). All complexes were isolated by gel chromatography (FIG. 4) on a Superose PG column in a 0.01M Tris-HCl buffer, pH 8.0, 0.15M NaCl, 1 mM NaN3, 0.1 g/L EDTA. The column was first saturated with the phospholipid to avoid dissociation of the lipid-peptide complexes. The complexes were detected by continuous monitoring of the optical density at 280 nm and by measurement of the Trp emission of the fractions on a Jasco SP500 spectrofluorimeter. The composition and size of the complexes, were determined on the two fractions with maximal UV absorption in the elution peak of the complexes. The composition was determined by quantitation of the phospholipids using an enzymatic assay (Biomerieux, France), and of the peptide by an HPLC phenylalanine assay on a C18 reversed-phase column, after hydrolysis (Vanloo et al., 1991).

[2] = Orientation of helices and acyl chains by polarized ATR infrared spectroscopy; type: physicochemical; settings: peptide-DMPC complexes
Method: Attenuated Total Reflection (ATR) infrared spectroscopy was used for the determination of the relative orientation of the apolipoprotein alpha-helical segments and of the phospholipid acyl chains as previously described for apo AI and apo AI-phospholipid complexes and for LDL (Vanloo et at., 1991). For these measurements, a 70 μL solution of 20 μg isolated complex in a 0.005M Tris-HCl buffer pH 8.4, was spread on a ATR Germanium crystal plate. Deuteration of the sample was performed by flushing N2, saturated with D2 O, in a sealed universal Perkin-Elmer sample holder, at room temperature for 3 hours, in order to avoid overlapping of the absorption bands for random and alpha-helical structures.
Spectra were recorded on a Perkin Elmer 1720X infrared spectrophotometer, using polarized incident light with a perpendicular (90°) and parallel (0°) orientation. A dichroic spectrum was obtained by substracting the spectrum recorded with polarized light at 0° from that at 90°. A positive deviation on the dichroic spectrum indicates a dipole preferentially oriented close to a normal to the plane, while a larger absorbance at 0° is indicative of a dipole oriented close to the Ge crystal plane. The angle between a normal to the Ge crystal and the dipole is obtained from the calculation of the dichroic ratio Ratr =A(90°)/A(0°), representing the ratio of the absorbances on the spectra recorded with polarized light at 90° and 0° . For each experiment, up to 15 scans were stored and averaged.
In order to determine the orientation of the alpha-helices with respect to the DMPC bilayer, ATR infrared spectra of DMPC and of the isolated peptide-DMPC complexes were recorded at two orthogonal linear polarizations of the incident light. […] This value is close to that measured for the apo AI-DMPC complex (Vanloo et al.,1991), and higher than that for pure DMPC. For the M1, M2, M3 and M4 peptide-DMPC complexes, the corresponding angles between the peptide and an axis perpendicular to the Ge plane are respectively 25°, 25°, 34° and 31°.

[3] = GdmCl denaturation followed by Trp maximal emission wavelength; type: physicochemical; settings: phospholipid (DMPC) complex
Method: The stability of the DMPC-peptide complexes, was compared by following the maximal emission wavelength of the Trp residues after exposure to increasing quantities of GdmCl. For these experiments aliquots of a 8M GdmCl solution were added to the complex in the Tris-HCl buffer described above (see FIG. 3).

J774 murine macrophages = assay: Cellular cholesterol efflux from lipid-loaded macrophages; type: cell-based; settings: for Vmax (cholesterol efflux): phospholipid-peptide complexes, cholesterol-loaded J774 cells, 24 h; for efflux of free cholesterol into the medium: protein concentration of the complex in the medium 100 μg/ml, 24 h incubation
Method: J774 murine macrophages are grown in DMEM (Gibco) with addition of 10% fetal calf serum (FCS), in a 5% CO2 atmosphere. Cells are seeded in 35 mm dishes at a density of 2×10^6 /dish, grown for 18 h in 2ml DMEM-10% FCS and used as confluent monolayers. After 18 h, the cells are washed twice with DMEM and incubated with acetylated LDL at a concentration of 100 μg apo B/ml for 24 h in a medium consisting of DMEM and 10% lipoprotein deficient serum (LPDS). LPDS is prepared from fetal cell serum (Gibco) by eliminating all lipoproteins by ultracentrifugation. After loading with cholesteryl esters, cell monolayers are washed with DMEM.
The cholesteryl ester-laden cells are incubated in 2 ml DMEM supplemented with 1 g/l bovine serum albumin and containing the Sandoz 58-035 compound at a concentration of 1 μg/ml medium as inhibitor of the acyl-CoA:cholesterol acyl transferase enzyme (ACAT) in order to prevent the re-esterification of the cellular cholesterol (Brown et at., 1980). The cholesterol acceptors, i.e. the discoidal peptide-lecithin complexes were added to the medium at concentrations varying between 10 and 200 μg peptide/ml and cells were incubated for 24 h.
After incubation, cells are washed once with phosphate buffer pH 7.4, 0.15N NaGl (PBS) containing 2 g/l BSA and twice with PBS alone. Lipid extracts are prepared by addition to the cell pellet of 5 ml hexane/isopropylalcohol (3:2) (Phillips et at., 1987). Fifty μl of a cholesteryl heptadecanoate solution in chloroform at a concentration of 500 μg/ml are added as internal standard for the HPLC quantitation of cholesteryl esters. After vortex-mixing for 3 min and centrifugation at 3000 rpm for 15 rain, the organic phase supernatant is dried, the precipitate is dissolved in 1 ml chloroform and washed three times. The dry residue is finally dissolved in 50 μl of a mixture of chloroform:acetonitrile:isopropylalcohol (1:1:1), of which 20 μl are injected into the HPLC system.
The same extraction procedure is applied to 1 ml of the medium. For quantification of the unesterified cholesterol fraction, beta-sitosterol is used as internal standard according to methods known in the art.
After delipidation, cellular proteins were dissolved in 0.1M NaOH and the proteins were assayed either by the method of Lowry (Lowry et al., 1951) or with the bicinchoninic acid (BCA) reagent using a kit for protein assay manufactured by Pierce (Pierce Europe, oud-Beijerland, Holland). In both cases bovine serum albumin was used as a standard.

[4] = Trp fluorescence emission of peptides and complexes; type: physicochemical; settings: for Trp maximal emission wavelength, free: free peptide or protein; for Trp maximal emission wavelength upon phospholipid binding: in the phospholipid complex
Method: The measurement of the Trp fluorescence emission in the peptides and in the complexes was used to monitor complex formation. The fluorescence measurements were performed on an Aminco SPF-500 spectrofluorimeter equipped with a special adapter (Aminco-J4-9501) for the fluorescence polarisation measurements. The fluorescence polarization of the lipid-peptide complexes labelled with diphenyl hexatriene (DPH) (molar ratio of 500:1 lipid:DPH) was measured as a function of the temperature to detect changes in the fluidity of the phospholipid acyl chains due to lipid-peptide association. The excitation wavelength was set at 365 nm and emission was detected at 427 nm. Temperature scans between 15° and 40° C. were performed with a circulating water bath (Julabo) at a rate of 0.6° C./min.

| Substance | Composition DPPC/Protein w/w [1] | angle between the peptide and an axis perpendicular to the Ge plane [2] | midpoint of the GdmCl denaturation, phospholipid complex [3] | Vmax (cholesterol efflux) (J774 murine macrophages) | efflux of free cholesterol into the medium (J774 murine macrophages) | complex size on Superose PG column ([1]; DPPC complexes, cholate dialysis) | Trp maximal emission wavelength, free [4] | Trp maximal emission wavelength upon phospholipid binding [4] |
| --- | --- | --- | --- | --- | --- | --- | --- | --- |
| EWLEAFYKKVLEKLKELF [M4] | 3/1 | 31 ° | 2.5 M | 50 μg cholesterol released from t | 20 µg | – | – | – |
| EWLKAEYEKVEEKLKELF [M3] | 4/1 | 34 ° | immediately | 77 μg cholesterol released from t | – | much larger | – | – |
| EWLKAEYEKVLEKLKELF [M2] | 2/1 | 25 ° | 3 M | 48 μg cholesterol released from t | – | – | 353 nm | 342 nm |
| EWLKAFYKKVLEKLKELF [M1] | 3/1 | 25 ° | 4 M | 111 μg cholesterol released from t | – | – | 341 nm | 335 nm |
| apo AI: native plasma apo AI purified from human plasma; major apoprotein constituent of HDL | 2/1 | – | 2.5 M | 52 μg cholesterol released from t | ~8 µg | – | 333 nm and 338 nm | 329 nm |

Source: patent publication US5733879A, “Peptides and proteins, process for their preparation and their use as cholesterol acceptors” (N.V. Innogenetics, S.A., priority 1992, dated 1998)
